Test results as given in patent US20230272016A1, “PEPTIDES FOR IMMUNOTHERAPY” (Second Genome, Inc., priority 2020, published 2023).

Molecular target: T1, CXCR3 (Homo sapiens, UniProt P49682)
T1 sequence (P49682 1-368): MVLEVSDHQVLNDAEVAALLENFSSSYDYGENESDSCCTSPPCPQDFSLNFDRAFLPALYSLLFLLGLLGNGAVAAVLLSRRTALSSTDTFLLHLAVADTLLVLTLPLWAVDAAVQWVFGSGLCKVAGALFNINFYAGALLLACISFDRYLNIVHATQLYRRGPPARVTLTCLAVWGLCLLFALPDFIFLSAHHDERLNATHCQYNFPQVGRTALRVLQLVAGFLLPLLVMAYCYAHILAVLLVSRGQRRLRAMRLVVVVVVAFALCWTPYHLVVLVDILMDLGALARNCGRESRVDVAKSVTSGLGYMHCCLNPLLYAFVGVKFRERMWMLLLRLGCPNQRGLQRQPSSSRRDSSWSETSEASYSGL
Experiment: PathHunter β-Arrestin GPCR assay (gpcrMAX)
Type: cell-based
Details: vehicle DMSO = 0%, control ligand = 100%
Text: The PathHunter® β-Arrestin Assay monitored activation of a panel of 168 G-protein coupled receptors (GPCRs) with […] activation of the GPCR in agonist and antagonist mode.
where the test sample is the peptide, the vehicle control=DMSO (0% activity), and the control ligand=control compound (100% activity).
Peptides SG-3-00802 and SG-3-05021 were identified as an agonist, an antagonist, a PAM (Positive Allosteric Modulator), or an inverse-agonist. Agonist, antagonist, PAM, and inverse-agonist were identified according to the guidelines in Table 18. The basal activity/noise is a % activity of −20% to 20% for both agonist and antagonist modes. A PAM (Positive Allosteric Modulator) binds to a receptor, at a different site than the agonist, to change the receptor's response to the agonist. An inverse-Agonist is a binding partner with agonistic shutting down of basal activity in the cell. An antagonist antagonizes the activity of a particular binding partner.

Question: What does the source list for “LGKTDWIEKYFKVKKEKIDKMQRFLQG [SG-3-05021, peptide from bacteroides.clarus.dsm.22519]”?
Answer: % Agonist Activity (gpcrMAX Agonist Mode): −4%; % Antagonist Activity (gpcrMAX Antagonist Mode): −20%
